Reference: patent publication US20180214548A1
One block for each substance: values may come before it.

Assays:
[1] = molecular target: cyno PD-1^ECD-hFc protein (cyno monkey) (UniProt B0LAJ3); test: ELISA, coated cyno PD-1ECD-hFc; antibody 0.001 nM
[2] = molecular target: CTLA4 (human) (UniProt P16410); test: ELISA, coated protein 1 ug/mL; antibody concentration not stated
[3] = molecular target: B7-1 (human) (UniProt P33681); test: as above
[4] = molecular target: human PD-1^ECD-hFc protein (Immunogen A) (human) (UniProt Q15116); test: as above
Chain of human PD-1^ECD-hFc protein (Immunogen A) (human) (Q15116 25-167): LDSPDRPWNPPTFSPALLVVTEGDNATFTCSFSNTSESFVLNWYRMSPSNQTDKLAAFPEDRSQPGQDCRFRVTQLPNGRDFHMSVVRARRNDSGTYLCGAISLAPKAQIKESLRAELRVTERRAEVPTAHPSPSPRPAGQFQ

[5] = molecular target: CD28 (human) (UniProt P10747); test: as above
Chain of CD28 (human) (P10747 19-152 limits assumed): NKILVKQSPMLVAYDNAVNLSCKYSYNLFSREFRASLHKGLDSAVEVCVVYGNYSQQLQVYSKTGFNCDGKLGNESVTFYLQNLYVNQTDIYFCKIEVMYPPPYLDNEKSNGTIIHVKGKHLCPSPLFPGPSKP

[6] = molecular target: ICOS (human) (UniProt Q9Y6W8); test: as above
Chain of ICOS (human) (Q9Y6W8 21-140 limits assumed): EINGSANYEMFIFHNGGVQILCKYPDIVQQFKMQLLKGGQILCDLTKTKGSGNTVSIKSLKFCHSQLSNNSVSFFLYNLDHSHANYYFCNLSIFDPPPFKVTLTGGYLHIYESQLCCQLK

[7] = molecular target: cyno PD-1^ECD-hFc protein (cyno monkey) (UniProt B0LAJ3); test: ELISA, coated cyno PD-1ECD-hFc; antibody 0.0001 nM
[8] = molecular target: full length human PD-1 on cells (human) (UniProt Q15116); test: flow cytometry, CHO-K1-hPD-1 cells; antibody 0.001 nM
Chain of full length human PD-1 on cells (human) (Q15116 25-288 limits assumed): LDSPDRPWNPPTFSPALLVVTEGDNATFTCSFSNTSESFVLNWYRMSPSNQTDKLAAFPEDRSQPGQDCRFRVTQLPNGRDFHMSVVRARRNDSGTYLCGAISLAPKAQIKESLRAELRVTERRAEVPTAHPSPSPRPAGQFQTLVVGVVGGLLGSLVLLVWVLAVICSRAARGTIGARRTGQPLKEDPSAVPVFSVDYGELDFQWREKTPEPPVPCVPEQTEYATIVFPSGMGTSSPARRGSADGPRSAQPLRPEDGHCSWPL

[9] = molecular target: human PD-1^ECD-hFc protein (Immunogen A) (human) (UniProt Q15116); test: ELISA, coated human PD-1ECD-hFc; antibody 0.001 nM
[10] = molecular target: full length human PD-1 on cells (human) (UniProt Q15116); test: flow cytometry, CHO-K1-hPD-1 cells; antibody 0.0001 nM
[11] = molecular target: full length human PD-1 on cells (human) (UniProt Q15116); test: flow cytometry, CHO-K1-hPD-1 cells; antibody 0.01 nM
[12] = molecular target: full length human PD-1 on cells (human) (UniProt Q15116); test: flow cytometry, CHO-K1-hPD-1 cells; antibody 0.00001 nM
[13] = molecular target: human PD-1, full length, on cells (human) (UniProt Q15116); test: cell-based or functional assay
Chain of human PD-1, full length, on cells (human) (Q15116 25-288): as the sequence (Q15116 25-288 limits assumed) above

[14] = molecular target: human PD-1^ECD-hFc protein (Immunogen A) (human) (UniProt Q15116); test: ELISA, coated human PD-1ECD-hFc; antibody 0.0001 nM
[15] = molecular target: human PD-1^ECD-hFc protein (Immunogen A) (human) (UniProt Q15116); test: ELISA, coated human PD-1ECD-hFc; antibody 0.00001 nM
[16] = molecular target: cyno PD-1^ECD-hFc protein (cyno monkey) (UniProt B0LAJ3); test: ELISA, coated cyno PD-1ECD-hFc; antibody 0.00001 nM
[17] = molecular target: human PD-1^ECD-hFc protein (Immunogen A) (human) (UniProt Q15116); test: ELISA, coated PD-1ECD-hFc; biotinylated protein 0.2 ug/mL
[18] = molecular target: human PD-1^ECD-hFc protein (Immunogen A) (human) (UniProt Q15116); test: ELISA, coated PD-1ECD-hFc; biotinylated protein 0.0001 ug/mL
[19] = molecular target: human PD-1^ECD-hFc protein (Immunogen A) (human) (UniProt Q15116); test: ELISA, coated PD-1ECD-hFc; biotinylated protein 0.00001 ug/mL
[20] = molecular target: human PD-1^ECD-hFc protein (Immunogen A) (human) (UniProt Q15116); test: ELISA, coated PD-1ECD-hFc; biotinylated protein 0.008 ug/mL
[21] = molecular target: human PD-1^ECD-hFc protein (Immunogen A) (human) (UniProt Q15116); test: ELISA, coated PD-1ECD-hFc; biotinylated protein 0.04 ug/mL
[22] = molecular target: human PD-1^ECD-hFc protein (Immunogen A) (human) (UniProt Q15116); test: ELISA, coated PD-1ECD-hFc; biotinylated protein 0.0003 ug/mL
[23] = molecular target: human PD-1^ECD-hFc protein (Immunogen A) (human) (UniProt Q15116); test: ELISA, coated PD-1ECD-hFc; biotinylated protein 1 ug/mL
[24] = molecular target: human PD-1^ECD-hFc protein (Immunogen A) (human) (UniProt Q15116); test: ELISA, coated PD-1ECD-hFc; biotinylated protein 0.0016 ug/mL

Chain of cyno PD-1^ECD-hFc protein (cyno monkey) (B0LAJ3 entry or part of it limits assumed): as the sequence (Q15116 25-167) above, with D2E, P10A, V19L, T35A, Q75R counted along it
Chain of CTLA4 (human) (P16410 37-162 limits assumed): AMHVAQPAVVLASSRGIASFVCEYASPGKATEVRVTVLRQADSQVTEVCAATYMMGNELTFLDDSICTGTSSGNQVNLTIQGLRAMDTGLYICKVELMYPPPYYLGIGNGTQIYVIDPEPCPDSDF
Chain of B7-1 (human) (P33681 35-242 limits assumed): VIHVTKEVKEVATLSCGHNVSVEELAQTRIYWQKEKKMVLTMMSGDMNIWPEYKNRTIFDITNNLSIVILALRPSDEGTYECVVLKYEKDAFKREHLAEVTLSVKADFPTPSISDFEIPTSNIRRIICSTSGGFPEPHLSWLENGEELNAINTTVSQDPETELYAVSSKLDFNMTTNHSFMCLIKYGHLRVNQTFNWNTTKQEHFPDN

- OD450 nm [1]: 0.106
- OD450 nm [2]: 0.062
- OD450 nm [3]: 0.07
- OD450 nm [4]: 0.082
- OD450 nm [5]: 0.064
- OD450 nm [6]: 0.142
- OD450 nm [7]: 0.11
- Mean fluorescence intensity [8]: 2.9
- OD450 nm [9]: 0.311
- Mean fluorescence intensity [10]: 3.1
- Mean fluorescence intensity [11]: 2.9
- Mean fluorescence intensity [12]: 2.7
- IFN-γ release, mixed lymphocyte reaction (PBMC donor-2), antibody 0.01 µg/mL [13]: 353 pg/mL
- IFN-γ release, mixed lymphocyte reaction (PBMC donor-2), antibody 0.1 µg/mL [13]: 281 pg/mL
- IFN-γ release, mixed lymphocyte reaction (PBMC donor-2), antibody 1 µg/mL [13]: 127 pg/mL
- OD450 nm [14]: 0.298
- OD450 nm [15]: 0.287
- OD450 nm [16]: 0.116
Substance: IgG control (human IgG) (antibody)

- OD450 nm [17]: 0.095
- OD450 nm [18]: 0.32
- OD450 nm [19]: 0.205
- OD450 nm [20]: 0.14
- OD450 nm [21]: 0.09
- OD450 nm [22]: 0.195
- OD450 nm [23]: 0.13
- OD450 nm [24]: 0.195
Substance: control protein (biotinylated non-PD-L1^ECD-hFc)
